{
  "source": "patent US20150328292A1",
  "about": "“CASPASE POLYPEPTIDES HAVING MODIFIED ACTIVITY AND USES THEREOF” (BELLICUM PHARMACEUTICALS, INC., priority 2014, published 2015)",
  "molecules": {"B1": {"name": "N405Qco: codon-optimized version of the modified caspase-9 polypeptide having the N405Q substitution, SEQ ID NO: 39/40 (protein)", "chain": "VDGFGDVGALESLRGNADLAYILSMEPCGHCLIINNVNFCRESGLRTRTGSNIDCEKLRRRFSSLHFMVEVKGDLTAKKMVLALLELARQDHGALDCCVVVILSHGCQASHLQFPGAVYGTDGCPVSVEKIVNIFNGTSCPSLGGKPKLFFIQACGGEQKDHGFEVASTSPEDESPGSNPEPDATPFQEGLRTFDQLDAISSLPTPSDIFVSYSTFPGFVSWRDPKSGSWYVETLDDIFEQWAHSEDLQSLLLRVANAVSVKGIYKQMPGCFQFLRKKLFFKTSASRA"}},
  "system": "Primary T cells from healthy donors",
  "data": [
    {"molecule": "B1", "values": [
      {"measurement": "AP1903-dependent cytotoxicity / sensitivity in transduced T cells", "result": "very subtle effect on inducible caspase function"}
    ]}
  ]
}
